B1: Q9QXV0 (protein, UniProt Q9QXV0 1-258, looked up)
chain: MAGSPLLCGPRAGGVGILVLLLLGLLRLPPTLSARPVKEPRSLSAASAPLVETSTPLRLRRAVPRGEAAGAVQELARALAHLLEAERQERARAEAQEAEDQQARVLAQLLRAWGSPRASDPPLAPDDDPDAPAAQLARALLRARLDPAALAAQLVPAPAAAPRPRPPVYDDGPTGPDVEDAGDETPDVDPELLRYLLGRILTGSSEPEAAPAPRRLRRSVDQDLGPEVPPENVLGALLRVKRLENPSPQAPARRLLPP
modifications: full-length
B2: Q9QXD6 (protein, UniProt Q9QXD6 1-338, looked up)
chain: MANHAPFETDISTLTRFVMEQGRKAQGTGELTQLLNSLCTAIKAISSAVRQAGIAQLYGIAGSTNVTGDQVKKLDILSNDLVINMLKSSYATCVLVSEENTNAIIIEPEKRGKYVVCFDPLDGSSNIDCLVSIGTIFGIYRKKSTDEPSEKDALQPGRDLVAAGYALYGSATMLVLAMDCGVNCFMLDPSIGEFIMVDRDVKMKKKGNIYSLNEGYAKDFDPAINEYLQRKKFPPDGSAPYGARYVGSMVADIHRTLVYGGIFLYPANKKSPSGKLRLLYECNPIAYVMEKAGGLATTGDKDILDIVPTEIHQKAPVVMGSSEDVQEFLEIYRKHKAK
modifications: full-length
B3: Q9JMH7 (protein, UniProt Q9JMH7 1-418, looked up)
chain: MEEVPPYSLSSTLFQQEEQSGVTYRIPALLYLPPTHTFLAFAEKRTSVRDEDAACLVLRRGLMKGRSVQWGPQRLLMEATLPGHRTMNPCPVWEKNTGRVYLFFICVRGHVTERCQIVWGKNAARLCFLCSEDAGCSWGEVKDLTEEVIGSEVKRWATFAVGPGHGIQLHSGRLIIPAYAYYVSRWFLCFACSVKPHSLMIYSDDFGVTWHHGKFIEPQVTGECQVAEVAGTAGNPVLYCSARTPSRFRAEAFSTDSGGCFQKPTLNPQLHEPRTGCQGSVVSFRPLKMPNTYQDSIGKGAPATQKCPLLDSPLEVEKGAETPSATWLLYSHPTSKRKRINLGIYYNRNPLEVNCWSRPWILNRGPSGYSDLAVVEEQDLVACLFECGEKNEYERIDFCLFSDHEVLSCEDCTSPSSD
modifications: full-length
B4: Q9QYY9 (protein, UniProt Q9QYY9 1-377, looked up)
chain: MGTQGKVIKCKAAIAWKTGSPLCIEEIEVSPPKACEVRIQVIATCVCPTDINATDPKKKALFPVVLGHECAGIVESVGPGVTNFKPGDKVIPFFAPQCKRCKLCLSPLTNLCGKLRNFKYPTIDQELMEDRTSRFTCKGRSIYHFMGVSSFSQYTVVSEANLARVDDEANLERVCLIGCGFSSGYGAAINTAKVTPSSTCAVFGLGCVGLSAIIGCKIAGASRIIAIDINGEKFPKAKALGATDCLNPRELDKPVQDVITELTAGGVDYSLDCAGTAQTLKAAVDCTVLGWGSCTVVGAKVDKMTIPTVDVILGRSINGTFFGGWKSVDSVPNLVSDYKNKKFDLDLLVTHALPFESINDAIDLMKEGKSIRTILTF
modifications: full-length
B5: Q9QXE2 (protein, UniProt Q9QXE2 1-573, looked up)
chain: MDPQGIVKAFPKRKKSHADLSSKALAKIPKREVGEARGWLSSLRAHIMPAGIGRARAELFEKQIIHHGGQVCSAQAPGVTHIVVDEDMDYERALRLLRLPQLPPGAQLVKSTWLSLCLQEGRLTDTEGFSLPMPKRSLDEPQPSKSGQDASAPGTQRDLPRTTLSLSPPHTRAVSPPPTAEKPSRTQAQLSSEDETSDGEGPQVSSADLQALITGHYPTPPEEDGGPDPAPEALDKWVCAQPSSQKATNYNLHITEKLEVLAKAYSVQGDKWRALGYAKAINALKSFHKPVSSYQEACSIPGIGKRMAEKVMEILESGHLRKLDHISDSVPVLELFSNIWGAGTKTAQMWYHQGFRNLEDLQSLGSLTAQQAIGLKHYDDFLDRMPREEAAEIEQTVRISAQAFNPGLLCVACGSYRRGKMTCGDVDVLITHPDGRSHRGIFSCLLDSLRQQGFLTDDLVSQEENGQQQKYLGVCRLPGPGKRHRRLDIIVVPYCEFACALLYFTGSAHFNRSMRALAKTKGMSLSEHALSAAVVRNSQGVKVGPGQVLPTPTEKDVFKHLGLPYREPAERDW
modifications: full-length
B6: Q9JME5 (protein, UniProt Q9JME5 1-1082, looked up)
chain: MSAAPAYSEDKGGSAGPGEPEYGHDPASGGIFSSDYKRHDDLKEMLDTNKDSLKLEAMKRIVAMIARGKNASDLFPAVVKNVACKNIEVKKLVYVYLVRYAEEQQDLALLSISTFQRGLKDPNQLIRASALRVLSSIRVPIIVPIMMLAIKEAASDMSPYVRKTAAHAIPKLYSLDSDQKDQLIEVIEKLLADKTTLVAGSVVMAFEEVCPERIDLIHKNYRKLCNLLIDVEEWGQVVIISMLTRYARTQFLSPTQNESLLEENPEKAFYGSEEDEAKGPGSEEAATAALPARKPYVMDPDHRLLLRNTKPLLQSRSAAVVMAVAQLYFHLAPKAEVGVIAKALVRLLRSHSEVQYVVLQNVATMSIKRRGMFEPYLKSFYIRSTDPTQIKILKLEVLTNLANETNIPTVLREFQTYIRSMDKDFVAATIQAIGRCATNIGRVRDTCLNGLVQLLSNRDELVVAESVVVIKKLLQMQPAQHGEIIKHLAKLTDNIQVPMARASILWLIGEYCEHVPKIAPDVLRKMAKSFTAEEDIVKLQVINLAAKLYLTNSKQTKLLTQYVLSLAKYDQNYDIRDRARFTRQLIVPSEQGGALSRHAKKLFLAPKPAPILESSFKDRDHFQLGSLSHLLNAKATGYQELPDWPEEAPDPSVRNVEVPEWTKCSNREKRKEKEKPFYSDSEGESGPTESADSEPESESESESKSSSGSGSGESSSESDNEEEDEEKGGGSESEQSEEEDEKKKKTKKKKASEGHREGSSSEEGSDSSSSSESEVTSESEEEQVEPASWRKKTPPGSKSAPVAKEISLLDLEDFTPPSVQPVSPPMVVSTSLAADLEGLTLTDSSLVPSLLSPVSSIGRQELLHRVAGEGLSVDYAFSRQPFSGDPHMVSLHIYFSNNSETPIKGLHVGTPKLPAGISIQEFPEIESLAPGESTTTVMGINFCDSTQAANFQLCTQTRQFYVSIQPPVGELMAPVFMSENEFKKEQGKLTGMNEITEKLTLPDTCRSDHMVVQKVTATANLGRVPCGTSDEYRFAGRTLTSGSLVLLTLDARAAGAAQLTVNSEKMVIGTMLVKDVIQALTQ
modifications: full-length
B7: Q9R022 (protein, UniProt Q9R022 1-198, looked up)
chain: MDAILNYRPEGSEDYYALLGCDELSSVEQILAEFKIRALECHPDKHPENSKAVETFQKLQKAKEILCNAESRARYDHWRRSQMSMPFEQWEALADSVKTSMHWAVRSKKDLMLEGSGQTFTSSVPNKERSEQRETKKGDPDSNPEKMKQKEPKFPEEGISPQNPDSPGLSDLNCGHLRFRWSGDAPSELLRKFRNYEI
modifications: full-length
B8: Q9JJK5 (protein, UniProt Q9JJK5 1-391, looked up)
chain: MEPEPQPEPVTLLVKSPNQRHRDLELSGDRSWSVSRLKAHLSRVYPERPRPEDQRLIYSGKLLLDHQCLQDLLPKQEKRHVLHLVCNVKNPSKMPETSTKGAESTEQPDNSNQTQHPGDSSSDGLRQREVLRNLSPSGWENISRPEAVQQTFQGLGPGFSGYTTYGWLQLSWFQQIYARQYYMQYLAATAASGTFVPTPSAQEIPVVSTPAPAPIHNQFPAENQPANQNAAAQAVVNPGANQNLRMNAQGGPLVEEDDEINRDWLDWTYSAATFSVFLSILYFYSSLSRFLMVMGATVVMYLHHVGWFPFRQRPVQNFPDDGGPRDAANQDPNNNLQGGMDPEMEDPNRLPPDREVLDPEHTSPSFMSTAWLVFKTFFASLLPEGPPALAN
modifications: full-length
B9: Q9QYB2 (protein, UniProt Q9QYB2 1-751, looked up)
chain: MAVPAALIPPTQLVPPQPPISTSASSSGTTTSTSSATSSPAPSIGPPASSGPTLFRPEPIASSASSSAAATVTSPGGGGGGSGGGGGSGGNGGGGGSNCNPSLAAGSSGGGVSAGGGGASSTPITASTGSSSSSSSSSSSSSSSSSSSSSSSSSSSCGPLPGKPVYSTPSPVENTPQNNECKMVDLRGAKVASFTVEGCELICLPQAFDLFLKHLVGGLHTVYTKLKRLEITPVVCNVEQVRILRGLGAIQPGVNRCKLISRKDFETLYNDCTNASSRPGRPPKRTQSVTSPENSHIMPHSVPGLMSPGIIPPTGLTAAAAAAAAATNAAIAEAMKVKKIKLEAMSNYHASNNQHGADSENGDMNSSVGSSGGSWDKETLHSPPSQGSQAPVAHARMPAAFSLPVSHPLNHLQHSHLPPNGLELPFMMMPHPLIPVSLPPASVTMAMSQMNHLSTIANMAAAAQVQSPPSRVETSVIKERVPDSPSPAPSLEEGRRPGSHPSSHRSSSVSSSPARTESSSDRIPVHQNGLSMNQMLMGLSPNVLPGPKEGDLAGHDMGHESKRIHIEKDETPLSTPTARDSIDKLSLTGHGQPLPPGFPSPFLFPDGLSSIETLLTNIQGLLKVAIDNARAQEKQVQLEKTELKMDFLRERELRETLEKQLAMEQKNRAIVQKRLKKEKKAKRKLQEALEFETKRREQAEQTLKQAASADSLRVLNDSLTPEIEADRSGGRADAERTIQDGRLYLKTTVMY
modifications: full-length

system: intracellular proteome of ENR+CD and ENR organoids; test: LC-MS/MS TMT proteomics of ENR+CD versus ENR organoids; format: cell-based, C57BL/6 mice; details: ENR+CD versus ENR organoids, sample pairs in aggregate (n=4, 2 technical replicates from two biological donors)

Row | Molecule | Average logFC
1 | B1 | 1.274
2 | B2 | −1.895
3 | B3 | −1.61
4 | B4 | −1.654
5 | B5 | 1.478
6 | B6 | −1.256
7 | B7 | 1.154
8 | B8 | 1.444
9 | B9 | 1.286

same assay, conditions: protein abundance ratio ENR+CD versus ENR organoids, sample pair M1-1; LC-MS/MS TMT proteomics

Row | Molecule | M1-1 Log2 Median Normalized
10 | B1 | 1.444
11 | B2 | −1.892
12 | B3 | −1.209
13 | B4 | −1.109
14 | B5 | 0.861
15 | B6 | −1.059
16 | B7 | 1.573
17 | B8 | 1.863
18 | B9 | 0.838

same assay, conditions: protein abundance ratio ENR+CD versus ENR organoids, sample pair M1-2; LC-MS/MS TMT proteomics

Row | Molecule | M1-2 Log2 Median Normalized
19 | B1 | 0.883
20 | B2 | −2.49
21 | B3 | −1.761
22 | B4 | −2.606
23 | B5 | 1.509
24 | B6 | −1.31
25 | B7 | 1.212
26 | B8 | 0.766
27 | B9 | 1.286

same assay, conditions: protein abundance ratio ENR+CD versus ENR organoids, sample pair M2-1; LC-MS/MS TMT proteomics

Row | Molecule | M2-1 Log2 Median Normalized
28 | B1 | 1.5975
29 | B2 | −2.2475
30 | B3 | −1.8685
31 | B4 | −2.0305
32 | B5 | 1.4485
33 | B6 | −1.1945
34 | B7 | 0.6885
35 | B8 | 1.1435
36 | B9 | 1.3505

same assay, conditions: protein abundance ratio ENR+CD versus ENR organoids, sample pair M2-2; LC-MS/MS TMT proteomics

Row | Molecule | M2-2 Log2 Median Normalized
37 | B1 | 1.172
38 | B2 | −0.495
39 | B3 | −1.601
40 | B4 | −0.87
41 | B5 | 2.093
42 | B6 | −1.459
43 | B7 | 1.141
44 | B8 | 2.005
45 | B9 | 1.402

same assay, conditions: up = enriched in ENR+CD, down = enriched in ENR; FDR<0.05 and log fold change cut-off

Row | Molecule | change
46 | B1 | up
47 | B2 | down
48 | B3 | down
49 | B4 | down
50 | B5 | up
51 | B6 | down
52 | B7 | up
53 | B8 | up
54 | B9 | up

Source: US11994512B2, “Single-cell genomic methods to generate ex vivo cell systems that recapitulate in vivo biology with improved fidelity” (Massachusetts Institute of Technology, priority 2018, dated 2024)
